Test results: US20030157712A1 (VANDERBILT UNIVERSITY, published 2003)

Biological target: T1, endogenous EphB2 receptor of HRMEC (human, UniProt P29323 19-1055)
T1 construct: whole, on cells; also called Nuk
T1 sequence (looked up): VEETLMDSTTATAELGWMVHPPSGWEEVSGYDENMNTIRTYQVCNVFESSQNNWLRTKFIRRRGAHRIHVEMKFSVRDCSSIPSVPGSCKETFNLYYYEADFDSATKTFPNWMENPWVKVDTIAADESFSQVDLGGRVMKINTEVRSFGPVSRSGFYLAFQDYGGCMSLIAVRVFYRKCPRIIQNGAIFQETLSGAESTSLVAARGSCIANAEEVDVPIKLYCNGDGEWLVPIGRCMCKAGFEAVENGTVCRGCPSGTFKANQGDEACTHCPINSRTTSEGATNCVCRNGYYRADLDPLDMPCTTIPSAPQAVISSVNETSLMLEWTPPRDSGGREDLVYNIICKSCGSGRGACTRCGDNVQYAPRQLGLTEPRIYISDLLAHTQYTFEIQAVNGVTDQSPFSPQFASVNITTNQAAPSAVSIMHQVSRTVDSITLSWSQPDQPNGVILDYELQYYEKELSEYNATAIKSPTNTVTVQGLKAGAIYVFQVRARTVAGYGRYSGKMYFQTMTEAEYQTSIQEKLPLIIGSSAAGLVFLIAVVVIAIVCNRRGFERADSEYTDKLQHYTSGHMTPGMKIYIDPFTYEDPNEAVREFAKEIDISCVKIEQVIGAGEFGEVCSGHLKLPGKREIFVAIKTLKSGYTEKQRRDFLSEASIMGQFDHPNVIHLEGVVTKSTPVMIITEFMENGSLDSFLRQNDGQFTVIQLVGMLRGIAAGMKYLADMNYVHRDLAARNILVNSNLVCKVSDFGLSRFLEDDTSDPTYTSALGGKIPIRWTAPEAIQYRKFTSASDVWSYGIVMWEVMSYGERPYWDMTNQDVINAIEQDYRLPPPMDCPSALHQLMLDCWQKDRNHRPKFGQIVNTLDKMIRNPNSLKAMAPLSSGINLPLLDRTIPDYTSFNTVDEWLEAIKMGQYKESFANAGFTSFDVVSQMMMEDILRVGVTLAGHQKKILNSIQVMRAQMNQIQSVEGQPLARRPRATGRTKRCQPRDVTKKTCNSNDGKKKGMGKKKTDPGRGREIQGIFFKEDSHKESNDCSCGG
Test: co-immunoprecipitation from HRMEC stimulated with dimeric or multimeric ephrin-B1/Fc, immunoblot
Experimental: Ligand stimulation and immunoprecipitation of endogenous EphB receptors. Primary HRMEC were used at passages 3-6, as described (12). […] Ninety min prior to ligand stimulation, cells (2×10⁵cells/60 mm dish) were plated on Matrigel-(Collaborative Biomedical Products, Becton Dickinson, Bedford, Mass., as recommended) or fibronectin-coated (29) dishes. […] Cells were incubated with agonists at 37° C. for 10 min, or as described in the figure legends. Immunoprecipitations were conducted on either cell lysates (P19) or on Triticum vulgaris lectin affinity purified fractions of HRMEC (15) (needed to reduce the background from Matrigel). Precipitated proteins were analyzed by immunoblot (15).

binding result: no binding
B1: endogenous EphB1 receptor of human endothelial cells (HRMEC; HUVEC) (receptor, UniProt P54762 18-984, looked up)
chain: MEETLMDTRTATAELGWTANPASGWEEVSGYDENLNTIRTYQVCNVFEPNQNNWLLTTFINRRGAHRIYTEMRFTVRDCSSLPNVPGSCKETFNLYYYETDSVIATKKSAFWSEAPYLKVDTIAADESFSQVDFGGRLMKVNTEVRSFGPLTRNGFYLAFQDYGACMSLLSVRVFFKKCPSIVQNFAVFPETMTGAESTSLVIARGTCIPNAEEVDVPIKLYCNGDGEWMVPIGRCTCKPGYEPENSVACKACPAGTFKASQEAEGCSHCPSNSRSPAEASPICTCRTGYYRADFDPPEVACTSVPSGPRNVISIVNETSIILEWHPPRETGGRDDVTYNIICKKCRADRRSCSRCDDNVEFVPRQLGLTECRVSISSLWAHTPYTFDIQAINGVSSKSPFPPQHVSVNITTNQAAPSTVPIMHQVSATMRSITLSWPQPEQPNGIILDYEIRYYEKEHNEFNSSMARSQTNTARIDGLRPGMVYVVQVRARTVAGYGKFSGKMCFQTLTDDDYKSELREQLPLIAGSAAAGVVFVVSLVAISIVCSRKRAYSKEAVYSDKLQHYSTGRGSPGMKIYIDPFTYEDPNEAVREFAKEIDVSFVKIEEVIGAGEFGEVYKGRLKLPGKREIYVAIKTLKAGYSEKQRRDFLSEASIMGQFDHPNIIRLEGVVTKSRPVMIITEFMENGALDSFLRQNDGQFTVIQLVGMLRGIAAGMKYLAEMNYVHRDLAARNILVNSNLVCKVSDFGLSRYLQDDTSDPTYTSSLGGKIPVRWTAPEAIAYRKFTSASDVWSYGIVMWEVMSFGERPYWDMSNQDVINAIEQDYRLPPPMDCPAALHQLMLDCWQKDRNSRPRFAEIVNTLDKMIRNPASLKTVATITAVPSQPLLDRSIPDFTAFTTVDDWLSAIKMVQYRDSFLTAGFTSLQLVTQMTSEDLLRIGITLAGHQKKILNSIHSMRVQISQSPTAMA
notes: whole, on cells; In the co-precipitation entries the receptor was tyrosine phosphorylated after stimulation of the cells; also called ELK
